Experimental data: patent US20050043510A1, “Affinity purification system using troponin molecules as affinity ligands” (priority 2003, published 2005)

What was measured:
[1] = target: rabbit skeletal muscle troponin C (Oryctolagus cuniculus, UniProt P02586); details: in the presence of calcium; Hanson Pierce et al. (1998); cited from earlier work
calmodulin = calmodulin (Homo sapiens, UniProt P0DP23); details: in the presence of calcium; Hanson Pierce et al. (1998); cited from earlier work
bovine serum albumin = bovine serum albumin (Bos taurus, UniProt P02769); details: in the presence of calcium; Hanson Pierce et al. (1998); cited from earlier work
Sequence of bovine serum albumin (P02769 25-607): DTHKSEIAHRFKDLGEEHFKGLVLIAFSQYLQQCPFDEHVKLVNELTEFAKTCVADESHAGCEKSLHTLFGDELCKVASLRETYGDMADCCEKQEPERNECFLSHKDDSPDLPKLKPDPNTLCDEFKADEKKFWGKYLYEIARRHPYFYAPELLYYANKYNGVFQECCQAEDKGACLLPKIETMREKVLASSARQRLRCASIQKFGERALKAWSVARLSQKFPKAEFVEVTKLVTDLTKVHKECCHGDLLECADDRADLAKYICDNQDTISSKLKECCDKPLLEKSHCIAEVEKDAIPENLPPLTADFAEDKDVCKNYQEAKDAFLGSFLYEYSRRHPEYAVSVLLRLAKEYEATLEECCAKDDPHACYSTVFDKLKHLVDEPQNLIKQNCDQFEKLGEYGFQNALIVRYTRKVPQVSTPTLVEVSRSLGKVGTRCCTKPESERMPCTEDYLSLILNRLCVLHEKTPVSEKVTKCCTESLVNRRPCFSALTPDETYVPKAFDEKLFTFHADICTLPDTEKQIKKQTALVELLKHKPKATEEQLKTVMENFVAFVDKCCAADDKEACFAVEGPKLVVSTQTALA

[2] = test system: troponin C-tagged C-terminal truncated version of La/SSB (TnC-LaΔC)

Sequence of rabbit skeletal muscle troponin C (P02586 whole entry): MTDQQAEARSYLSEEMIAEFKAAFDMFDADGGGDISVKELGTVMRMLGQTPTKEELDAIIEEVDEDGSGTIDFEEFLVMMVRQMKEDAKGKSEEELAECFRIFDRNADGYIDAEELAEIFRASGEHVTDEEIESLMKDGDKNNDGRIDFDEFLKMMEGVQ

Substance	Calcium dependent binding [1]	Calcium dependent binding (calmodulin)	Calcium dependent binding (bovine serum albumin)	thrombin proteolytic cleavage (SDS-PAGE) [2]
SRLDYLKSSLLHLGSR (SEQ ID NO:1) [Troponin C binding peptide, previously described (Hanson Pierce et al. 1998)]	demonstrated	not	not	–
biotinylated thrombin (Thrombin Cleavage Capture Kit, Novagen)	–	–	–	apparent complete cleavage when 0.1 units of thrombin was used
